Data published in US20060067886A1, “Gastrin receptor-avid peptide conjugates” (priority 1997, published 2006).
“And” between values parts separate entries of the source, which are not always exact repeats. Equal entries are not always repeated.

Experiments:
[1] = test system: PC-3 human tumor xenografts; experiment: in vivo
[2] = Biodistribution of radiometal-DOTA-BBN conjugates in CF1 normal mice; settings: 1 hour post-injection
[3] = Stability of 177Lu conjugate (RCP, HPLC recovery); format: physicochemical; settings: wide range of pH values, 24 hours
Experimental: Under identical chromatographic conditions, DOTA-8-Aoc-BBN[7-14]NH2 has a retention time of 20.5 minutes, allowing for peak purification of the radiolabeled conjugate.
To 50 μl (3.4×10^−8 mols) of DOTA-8-Aoc-BBN[7-14]NH2 in 50 μL of 0.2M Ammonium Acetate was added 150 μL of 0.4M Ammonium Acetate. To this solution was added 50 μL of 177LuCl3 (2 mCi in 0.05N HCl, Missouri University Research Reactor). The solution was allowed to incubate at […] for 1 hour, after which […] of 0.002M EDTA was added in order to scavenge uncomplexed Lutetium. Quality control of the final product was determined by reversed-phase HPLC. Peak purification of the labeled species was performed by collecting the sample from the HPLC eluant, into a solution of 1 mg/mL bovine serum albumin/0.1M Na2HPO4. All further analyses were carried out using the HPLC-purified products.
HPLC analysis of each of the new compounds was performed using an analytical C-18 reversed phase column (Phenomenex, 250×4.6 mm, 5 μm). The mobile phase consisted of a linear gradient system, with solvent A corresponding to 100% water with 0.1% trifluoroacetic acid and solvent B corresponding to 100% acetonitrile with 0.1% trifluoroacetic acid. […]

CSCC[C@H](NC(=O)[C@H](CC(C)C)NC(=O)[C@H](Cc1cnc[nH]1)NC(=O)CNC(=O)[C@@H](NC(=O)[C@H](C)NC(=O)[C@H](Cc1c[nH]c2ccccc12)NC(=O)[C@H](CCC(N)=O)NC(=O)CCCCCCCNC(=O)CN1CCN(CC(=O)O)CCN(CC(=O)O)CCN(CC(=O)O)CC1)C(C)C)C(N)=O [177Lu-DOTA-8-Aoc-BBN[7-14]NH2] [metal not drawn]
Avg % ID, Blood ([1]; 1 hr): 0.62±0.44 % ID | Avg % ID, Carcass ([1]; 1 hr): 6.18 ± 1.01 % ID | Avg % ID, L. Intestine ([1]; 1 hr): 3.64 ± 0.72 % ID | Avg % ID, Muscle ([1]; 1 hr): 0.01 + 0.02 % ID | Avg % ID, Pancreas ([1]; 1 hr): 9.70 ± 1.12 % ID | Avg % ID, S. Intestine ([1]; 1 hr): 8.20 ± 1.72 % ID | Avg % ID, Stomach ([1]; 1 hr): 0.61 ± 0.09 % ID | Avg % ID, Tumor ([1]; 1 hr): 1.15 ± 0.72 % ID | Avg % ID, Urine ([1]; 1 hr): 67.41±2.45 % ID | Avg % ID/gm, Heart ([1]; 1 hr): 0.15 ± 0.22 % ID/gm | Avg % ID/gm, Kidney ([1]; 1 hr): 4.70 ± 0.95 % ID/gm | Avg % ID/gm, L. Intestine ([1]; 1 hr): 3.29 ± 0.61 % ID/gm | Avg % ID/gm, Liver ([1]; 1 hr): 0.30 ± 0.05 % ID/gm | Avg % ID/gm, Lung ([1]; 1 hr): 0.18 ± 0.09 % ID/gm | Avg % ID/gm, Muscle ([1]; 1 hr): 0.11 ± 0.13 % ID/gm | Avg % ID/gm, Pancreas ([1]; 1 hr): 38.53 ± 3.61 % ID/gm | Avg % ID/gm, S. Intestine ([1]; 1 hr): 5.60 ± 0.46 % ID/gm | Avg % ID/gm, Spleen ([1]; 1 hr): 0.33 ± 0.51 % ID/gm | Avg % ID/gm, Stomach ([1]; 1 hr): 1.38 ± 0.52 % ID/gm | Avg % ID/gm, Tumor ([1]; 1 hr): 4.22±1.09 % ID/gm | Avg % ID, Blood ([1]; 4 hrs): 0.12 ± 0.11 % ID | Avg % ID, Carcass ([1]; 4 hrs): 2.52 ± 1.18 % ID | Avg % ID, Heart ([1]; 4 hrs): 0.01 + 0.02 % ID | Avg % ID, Kidney ([1]; 4 hrs): 0.61 ± 0.08 % ID | Avg % ID, L. Intestine ([1]; 4 hrs): 7.28 ± 4.23 % ID | Avg % ID, Liver ([1]; 4 hrs): 0.15 ± 0.03 % ID | Avg % ID, Lung ([1]; 4 hrs): 0.05 + 0.09 % ID | Avg % ID, Muscle ([1]; 4 hrs): 0.02 + 0.03 % ID | Avg % ID, Pancreas ([1]; 4 hrs): 5.23 ± 1.68 % ID | Avg % ID, S. Intestine ([1]; 4 hrs): 2.51 ± 0.75 % ID | Avg % ID, Spleen ([1]; 4 hrs): 0.05 ± 0.02 % ID | Avg % ID, Stomach ([1]; 4 hrs): 0.22 ± 0.06 % ID | Avg % ID, Tumor ([1]; 4 hrs): 0.78 ± 0.27 % ID | Avg % ID, Urine ([1]; 4 hrs): 79.76 ± 6.48 % ID | Avg % ID/gm, Blood ([1]; 4 hrs): 0.08 ± 0.07 % ID/gm | Avg % ID/gm, Heart ([1]; 4 hrs): 0.07 ± 0.13 % ID/gm | Avg % ID/gm, Kidney ([1]; 4 hrs): 2.18 ± 0.31 % ID/gm | Avg % ID/gm, L. Intestine ([1]; 4 hrs): 7.29 ± 3.73 % ID/gm | Avg % ID/gm, Liver ([1]; 4 hrs): 0.13 ± 0.02 % ID/gm | Avg % ID/gm, Lung ([1]; 4 hrs): 0.11 ± 0.15 % ID/gm | Avg % ID/gm, Muscle ([1]; 4 hrs): 0.15 ± 0.21 % ID/gm | Avg % ID/gm, Pancreas ([1]; 4 hrs): 22.18 ± 4.66 % ID/gm | Avg % ID/gm, S. Intestine ([1]; 4 hrs): 1.93 ± 0.96 % ID/gm | Avg % ID/gm, Spleen ([1]; 4 hrs): 0.60 ± 0.36 % ID/gm | Avg % ID/gm, Stomach ([1]; 4 hrs): 0.34 ± 0.34 % ID/gm | Avg % ID/gm, Tumor ([1]; 4 hrs): 3.03±0.91 % ID/gm | Avg % ID, Blood ([1]; 24 hrs): 0.01 + 0.02 % ID | Avg % ID, Carcass ([1]; 24 hrs): 2.08 + 3.14 % ID | Avg % ID, Kidney ([1]; 24 hrs): 0.17 ± 0.06 % ID | Avg % ID, L. Intestine ([1]; 24 hrs): 1.75 ± 0.23 % ID | Avg % ID, Muscle ([1]; 24 hrs): 0.02 + 0.03 % ID | Avg % ID, Pancreas ([1]; 24 hrs): 1.31 ± 0.45 % ID | Avg % ID, S. Intestine ([1]; 24 hrs): 0.67 ± 0.12 % ID | Avg % ID, Spleen ([1]; 24 hrs): 0.01 + 0.01 % ID | Avg % ID, Stomach ([1]; 24 hrs): 0.09 ± 0.06 % ID | Avg % ID, Tumor ([1]; 24 hrs): 0.29 ± 0.18 % ID | Avg % ID, Urine ([1]; 24 hrs): 85.9±1.4 % ID and 85.85 ± 1.39 % ID | Avg % ID/gm, Blood ([1]; 24 hrs): 0.01 ± 0.01 % ID/gm | Avg % ID/gm, Heart ([1]; 24 hrs): 0.06 ± 0.09 % ID/gm | Avg % ID/gm, Kidney ([1]; 24 hrs): 0.60 ± 0.20 % ID/gm | Avg % ID/gm, L. Intestine ([1]; 24 hrs): 1.90 ± 0.53 % ID/gm | Avg % ID/gm, Lung ([1]; 24 hrs): 0.14 ± 0.26 % ID/gm | Avg % ID/gm, Muscle ([1]; 24 hrs): 0.10 ± 0.17 % ID/gm | Avg % ID/gm, Pancreas ([1]; 24 hrs): 4.97 ± 2.28 % ID/gm | Avg % ID/gm, S. Intestine ([1]; 24 hrs): 0.48 ± 0.14 % ID/gm | Avg % ID/gm, Spleen ([1]; 24 hrs): 0.08 ± 0.10 % ID/gm | Avg % ID/gm, Stomach ([1]; 24 hrs): 0.19 ± 0.13 % ID/gm | Avg % ID/gm, Tumor ([1]; 24 hrs): 1.54±1.14 % ID/gm | Avg % ID, Blood [2]: 0.20 ± 0.15 % ID | Avg % ID, Carcass [2]: 4.95 ± 1.41 % ID | Avg % ID, Heart [2]: 0.02 ± 0.04 % ID | Avg % ID, Kidney [2]: 1.62 ± 0.14 % ID | Avg % ID, L. Intestine [2]: 4.63 ± 0.57 % ID | Avg % ID, Liver [2]: 0.31 ± 0.05 % ID | Avg % ID, Muscle [2]: 0.02 ± 0.05 % ID | Avg % ID, Pancreas [2]: 7.01 ± 1.42 % ID | Avg % ID, S. Intestine [2]: 9.55 ± 2.37 % ID | Avg % ID, Spleen [2]: 0.16 ± 0.05 % ID | Avg % ID, Stomach [2]: 0.51 ± 0.15 % ID | Avg % ID/gm, Blood [2]: 0.14 ± 0.10 % ID/gm | Avg % ID/gm, Heart [2]: 0.19 ± 0.36 % ID/gm | Avg % ID/gm, Kidney [2]: 4.97 ± 0.71 % ID/gm | Avg % ID/gm, L. Intestine [2]: 6.17 ± 0.79 % ID/gm | Avg % ID/gm, Liver [2]: 0.23 ± 0.05 % ID/gm | Avg % ID/gm, Lung [2]: 0.20 ± 0.21 % ID/gm | Avg % ID/gm, Muscle [2]: 0.17 ± 0.39 % ID/gm | Avg % ID/gm, Pancreas [2]: 30.83 ± 1.89 % ID/gm | Avg % ID/gm, S. Intestine [2]: 6.47 ± 1.24 % ID/gm | Avg % ID/gm, Spleen [2]: 1.23 ± 0.59 % ID/gm | Avg % ID/gm, Stomach [2]: 1.41 ± 0.44 % ID/gm | stability of the conjugate (RCP) [3]: stability of the conjugate over a wide range of pH values over a time course of 24 hours
